From US20140065111A1 (published 2014) come the findings set out here.

The target of this assay is T1, human gp100 peptide on H-2Db (mouse).
T1 peptide: KVPRNQDWL
Put plainly: multimer staining. The method, then:
Monomers of H2D^b mouse MHC class I molecules loaded with the human gp100 peptide KVPRNQDWL were ordered from the NIH tetramer facility. Monomers were conjugated to APC-Streptavidin (eBiosience) by incubation on ice. Cells were stained with tetramers for 1H in concentrations of 0.178 μg tetramers for 1 million cells in total volume of 50 μl of PBS supplemented with 0.5% BSA and 0.1% of Na-Azide.
After testing the expression and presence of the CD3-TCR complex on the cell surface it is essential to determine the capability of the TCR to bind the MHC-class I molecule presenting the gp100 peptide. In order to test binding capability of the TCR a tetramer staining assay was performed. The tetramer staining assay is designed for testing TCR-MHC binding and was previously described (Ogg and McMichael, 1998). Briefly, the tetramer is a complex of four monomers. Each monomer formed from a mouse MHC-class I molecule, H-2D^b, presenting the human gp100 peptide KVPRNQDWL. The H-2D^b molecule is conjugated to a biotin molecule. The tetramers are assembled by linking four biotin conjugated monomers to one molecule of APC-conjugated Streptavidin. The 293TREx-CD3-Pmel-TCR cells were stained with the tetramers and analyzed by FACS.

B1: Pmel-TCR (TCR, V domains shown)
Valpha: QQKVQQSPESLTVSEGAMASLNCTFSDRSSDNFRWYRQHSGKGLEVLVSIFSDGEKEEGSFTAHLNRASLHVFLHIREPQPSDSALYLCAVNTGNYKYVFGAGTRLKVIA
Vbeta: EAGVTQSPRYAVLQEGQAVSFWCDPISGHDTLYWYQQPRDQGPQLLVYFRDEAVIDNSQLPSDRFSAVRPKGTNSTLKIQSAKQGDTATYLCASSFHRDYNSPLYFAAGTRLTVT
B1: the binding result is on record as “recognises”.
